Laboratory results from patent US12391751B2, “Antibody against advanced glycation end products and use thereof” (Bloom Technology Corporation, priority 2018, dated 2025).

What was measured:
[1] = tested on: HUVEC (human umbilical vein endothelial cells); assay: Neutralization test of vascular endothelial cell lumen formation inhibition (Example 14); type: cell-based; conditions: antibody pre-reacted with Glycer-AGEs-BSA; HUVEC, 8 hours
Protocol: Matrigel matrix (Corning Inc.) was placed in a refrigerator and thawed overnight. The thawed Matrigel matrix was added at 300 μL/well to a 12-well plate (Corning Inc.) and hardened by still standing at 37° C. for 1 hour in a CO2 incubator (ESPEC Corp.).
10 μL of Glycer-AGEs-BSA (10 mg/mL) prepared in Example 1 or 10 μL of control BSA (10 mg/mL), phosphate-buffered saline (PBS, FUJIFILM Wako Pure Chemical Corp.), and 90 μL of SJ-5 (10 mg/mL) or a control antibody (10 mg/mL) were added to a 1.5 mL tube (Watson) and left standing at room temperature for 10 minutes. Then, a supernatant was recovered by centrifugation at 14000 rpm for 15 minutes using a centrifuge (Thermo Fisher Scientific Inc.).
HUVEC (human umbilical vein endothelial cells, National Institutes of Biomedical Innovation, Health and Nutrition, JCRB cell bank) was cultured in a 10 cm dish (Corning Inc.) using 10 mL of a medium for HUVEC (KAC Co., Ltd.).
The cultured HUVEC was washed with 10 mL of PBS. Then, 1 mL of trypsin-EDTA (FUJIFILM Wako Pure Chemical Corp.) was added thereto and left standing at room temperature for 3 minutes. […]
After the centrifugation, the supernatant was discarded, and precipitated cells were resuspended by the addition of 1 mL of a medium for HUVEC. […] Then, the number of live cells was counted in Auto Cell Counter EVE (NanoEnTek Inc.). […]

CD31 = assay: Endothelial-to-mesenchymal transition inhibition test, real-time PCR (Example 15); type: cell-based, human; conditions: HUVEC; antibody pre-reacted with Glycer-AGEs-BSA
Protocol: (§1) 10 μL of Glycer-AGEs-BSA (10 mg/mL) prepared in Example 1, PBS, and 90 μL of SJ-5 (10 mg/mL) or a control antibody (10 mg/mL) were added to a 1.5 mL tube (Watson). Alternatively, 90 μL of a PBS solution of control BSA (10 mg/mL) was added. These solutions were left standing at room temperature for 10 minutes. Then, a supernatant was recovered by centrifugation at 14000 rpm for 15 minutes using a centrifuge (Thermo Fisher Scientific Inc.).
(§2) HUVEC was cultured in a 10 cm dish using 10 mL of a medium for HUVEC.
(§3) The cultured HUVEC was washed with 10 mL of PBS. Then, 1 mL of trypsin-EDTA was added thereto and left standing at room temperature for 3 minutes. HUVEC thus left standing was confirmed to be detached from the dish, and trypsin-EDTA was neutralized by the addition of 10 mL of a medium for HUVEC. After the neutralization, the whole amount was transferred to a 50 mL tube and centrifuged at 1500 rpm for 3 minutes using a centrifuge.
(§4) After the centrifugation, the supernatant was discarded, and precipitated cells were resuspended by the addition of 1 mL of a medium for HUVEC. A 10 μL aliquot from the resuspension was mixed with 10 μL of Trypan Blue, and 10 μL thereof was added to a counting chamber. Then, the number of live cells was counted in Auto Cell Counter EVE. The cell suspension was diluted into 2.5×10^5 cells/mL with a medium for HUVEC and inoculated at 400 μL/well to the Matrigel prepared in (1). After the inoculation, each reaction solution prepared in (2) was added at 100 μL/well, followed by culture for 8 hours in a CO2 incubator.
(§5) Each well was washed three times with 1 mL of PBS, and Cell Recovery Solution (Corning Inc.) was added at 500 μL/well.
(§6) The cells and the Matrigel matrix were scraped off using Blue Chip (Watson), recovered into a 1.5 mL tube, and transferred to the 1.5 mL tube after rinsing of each well again with 500 μL of Cell Recovery Solution. The 1.5 mL tube was mixed by inversion five times and then left standing on ice for 1 hour to confirm that the Matrigel matrix was completely degraded. After the Matrigel matrix degradation, a supernatant was discarded by centrifugation at 800 rpm at 4° C. Precipitated cells were gently suspended in 1 mL of ice-cooled PBS and centrifuged at 800 rpm at 4° C. to discard a supernatant. Precipitated cells were gently suspended again in 1 mL of ice-cooled PBS and centrifuged at 800 rpm at 4° C.
(§7) 125 μL of CellAmp Washing Buffer attached to the kit was added to the cells precipitated by centrifugation, and mixed. […]
(§8) After the addition, real-time PCR was performed with QuantStudio™ 12K Flex real-time PCR system (Thermo Fisher Scientific Inc.) to quantify gene expression levels. […]

α-SMA = assay: as above; type: cell-based, human; conditions: HUVEC; antibody pre-reacted with Glycer-AGEs-BSA
Protocol: as §1, §2, §3, §4, §5, §6, §7, §8

B1: SJ-5: mouse monoclonal antibody raised against GAL13-MSA; heavy-chain variable region SEQ ID NO 4, light-chain variable region SEQ ID NO 8 (antibody, listed as Mus musculus, V domains shown)
VH: EVMLVESGGRLVKPGGSLKLSCAASGFTFSSYGMSWVRQTPEKRLEWVATISGGGSYTYYPDSVKGRFTISRDNVKNNLYLQMSSLRSEDTALYYCARRGAYGDYGWFAYWGQGTLVTVSA
VL: DIVLTQSPATLSVTPGDSVSLSCRASQSINNNLHWYQQKSHESPRLLIKCASQSISGIPSRFSGSGSGTDFTLSINSVETEDFGMYFCQQSNSWPLTFGAGTKLELK
[1]
  neutralization of lumen formation inhibition by Glycer-AGEs-BSA: neutralized
CD31
  suppression of CD31 decrease caused by Glycer-AGEs-BSA: suppressible
α-SMA
  suppression of α-SMA increase caused by Glycer-AGEs-BSA: suppressible
